Assay results published in the RNAGym collection of RNA variant scans (doi:10.7554/elife.80360).

B1: Hairpin Ribozyme (parent)
chain: GUCCUCUUUCACGUGCGCGUGAAAGAGAGAAGUGAACCAGAGAAACACACGUUGUGGUAUAUUACCUGGUA

Variants of: B1
Assay: self-cleavage, relative activity (ratio to wild type); higher = more cleavage; co-transcriptional
GUCCUCUUUCACGUGCGCGUGAAAGAGAGAAGUGAAUCAGAGAAACACACGUCGUGGUAUAUUACCUGGUA showed a self-cleavage of 0.808. Variant GUCCUCUUUCACGUGCGCGUGAAAGAGAGAAGUGAACAAGAGAAACACACGUUGUGGUAUAUUACCUGGUG has a self-cleavage of 0.249. With GUCCUCUUUCACGUGCGCGUGAAAGAGAGAAGUGAACAAGAGAAACUCACGUUGUGGUAUAUUACCUGGUA the self-cleavage was 0.0951. For GUCCUCUUUCACGUGCGCGUGAAAGAGAGAAGUGAACAAGAGAAACCCACGUUGUGGUAUAUUACCUGGUA, the self-cleavage was 0.146. Work on GUCCUCUUUCACGUGCGCGUGAAAGAGAGAAGUGAACAAGAGAAACACCCGUUGUGGUAUAUUACCUGGUA yielded a self-cleavage of 0.11. With GUCCUCUUUCACGUGCGCGUGAAAGAGAGAAGUGAACAAGAGAAACACGCGUUGUGGUAUAUUACCUGGUA the self-cleavage was 0.182. Variant GUCCUCUUUCACGUGCGCGUGAAAGAGAGAAGUGAAUGAGAGAAACACACGUUGUGGUAUAUUACCUGGUA has a self-cleavage of 0.0604. For GUCCUCUUUCACGUGCGCGUGAAAGAGAGAAGUGAAUUAGAGAAACACACGUUGUGGUAUAUUACCUGGUA, the self-cleavage was 0.201. Work on GUCCUCUUUCACGUGCGCGUGAAAGAGAGAAGUGAAUCAGAGAAACACACGAUGUGGUAUAUUACCUGGUA yielded a self-cleavage of 0.672. Work on GUCCUCUUUCACGUGCGCGUGAAAGAGAGAAGUGAAGCAGAGAAACACACGUUGUAGUAUAUUACCUGGUA yielded a self-cleavage of 0.204. Variant GUCCUCUUUCACGUGCGCGUGAAAGAGAGAAGUGAAGCAGAGAAACACACGUUGAGGUAUAUUACCUGGUA has a self-cleavage of 0.226. Variant GUCCUCUUUCACGUGCGCGUGAAAGAGAGAAGUGAAGCAGAGAAACACACGUUGCGGUAUAUUACCUGGUA has a self-cleavage of 0.178. With GUCCUCUUUCACGUGCGCGUGAAAGAGAGAAGUGAAUCAGAGAAACACACGUUGUGGUAUAUUACCCGGUA the self-cleavage was 0.142. For GUCCUCUUUCACGUGCGCGUGAAAGAGAGAAGUGAAUCAGAGAAACACACGUUGUGGUAUAUUACCGGGUA, the self-cleavage was 0.234. Variant GUCCUCUUUCACGUGCGCGUGAAAGAGAGAAGUGAAUCAGAUAAACACACGUUGUGGUAUAUUACCUGGUA has a self-cleavage of 0.27. For GUCCUCUUUCACGUGCGCGUGAAAGAGAGAAGUGAAUCAGAGAAACUCACGUUGUGGUAUAUUACCUGGUA, the self-cleavage was 0.177. GUCCUCUUUCACGUGCGCGUGAAAGAGAGAAGUGAAUCAGAGAAACGCACGUUGUGGUAUAUUACCUGGUA gave a self-cleavage of 0.167. With GUCCUCUUUCACGUGCGCGUGAAAGAGAGAAGUGAAUCAGAGAAACACACGUUGUGGUAUGUUACCUGGUA the self-cleavage was 0.126. Work on GUCCUCUUUCACGUGCGCGUGAAAGAGAGAAGUGAAUCAGAGAAACACACGUUGUGGUAUCUUACCUGGUA yielded a self-cleavage of 0.146. With GUCCUCUUUCACGUGCGCGUGAAAGAGAGAAGUGAAUCAGAGAAACACACGUUGUGGUAUUUUACCUGGUA the self-cleavage was 0.248. Work on GUCCUCUUUCACGUGCGCGUGAAAGAGAGAAGUGAAGCAGAGAAACAUACGUUGUGGUAUAUUACCUGGUA yielded a self-cleavage of 0.144. For GUCCUCUUUCACGUGCGCGUGAAAGAGAGAAGUGAAUCAGAGAAACACACGUUGUGGUAUAUUACCUCGUA, the self-cleavage was 0.139. Work on GUCCUCUUUCACGUGCGCGUGAAAGAGAGAAGUGAAUCAGAGAAACACACGUUGUGGUAUAUUACCUUGUA yielded a self-cleavage of 0.193. GUCCUCUUUCACGUGCGCGUGAAAGAGAGAAGUGAAGCAGAGAAACACACGUUCUGGUAUAUUACCUGGUA showed a self-cleavage of 0.149. For GUCCUCUUUCACGUGCGCGUGAAAGAGAGAAGUGAAGCAGAGAAACACACGUUGUGGUAUAUUACAUGGUA, the self-cleavage was 0.207. Variant GUCCUCUUUCACGUGCGCGUGAAAGAGAGAAGUGAACAAGAGAAACACACGUUGUGGUUUAUUACCUGGUA has a self-cleavage of 0.134. Work on GUCCUCUUUCACGUGCGCGUGAAAGAGAGAAGUGAACAAGAGAAACACACGUUGUGGUGUAUUACCUGGUA yielded a self-cleavage of 0.118. Work on GUCCUCUUUCACGUGCGCGUGAAAGAGAGAAGUGAAGCAGAGAAACACACCUUGUGGUAUAUUACCUGGUA yielded a self-cleavage of 0.469. Variant GUCCUCUUUCACGUGCGCGUGAAAGAGAGAAGUGAACAAGAGAAACAAACGUUGUGGUAUAUUACCUGGUA has a self-cleavage of 0.14. With GUCCUCUUUCACGUGCGCGUGAAAGAGAGAAGUGAACAAGAGAAACAGACGUUGUGGUAUAUUACCUGGUA the self-cleavage was 0.122. In the case of GUCCUCUUUCACGUGCGCGUGAAAGAGAGAAGUGAAUCAGUGAAACACACGUUGUGGUAUAUUACCUGGUA, the self-cleavage is reported as 0.969. Variant GUCCUCUUUCACGUGCGCGUGAAAGAGAGAAGUGAAUCAGAGAAGCACACGUUGUGGUAUAUUACCUGGUA has a self-cleavage of 0.0764. With GUCCUCUUUCACGUGCGCGUGAAAGAGAGAAGUGAAUCAGAGAAACACACGUUGUGGUAUAUUCCCUGGUA the self-cleavage was 0.205. GUCCUCUUUCACGUGCGCGUGAAAGAGAGAAGUGAACAAGGGAAACACACGUUGUGGUAUAUUACCUGGUA gave a self-cleavage of 0.51. Work on GUCCUCUUUCACGUGCGCGUGAAAGAGAGAAGUGAAGCAGAGAAACACACGUUGUGGUAUAUUUCCUGGUA yielded a self-cleavage of 0.192. With GUCCUCUUUCACGUGCGCGUGAAAGAGAGAAGUGAAGCAGAGAAACACACGUUGUGGUAUAUUCCCUGGUA the self-cleavage was 0.136. GUCCUCUUUCACGUGCGCGUGAAAGAGAGAAGUGAACAAGAGAUACACACGUUGUGGUAUAUUACCUGGUA gave a self-cleavage of 0.118. Variant GUCCUCUUUCACGUGCGCGUGAAAGAGAGAAGUGAACAAGAGAGACACACGUUGUGGUAUAUUACCUGGUA has a self-cleavage of 0.144. In the case of GUCCUCUUUCACGUGCGCGUGAAAGAGAGAAGUGAAGCAGAGAAACACACGUUGUGGUAUAAUACCUGGUA, the self-cleavage is reported as 0.153. With GUCCUCUUUCACGUGCGCGUGAAAGAGAGAAGUGAAUCAGAGACACACACGUUGUGGUAUAUUACCUGGUA the self-cleavage was 0.1. With GUCCUCUUUCACGUGCGCGUGAAAGAGAGAAGUGAACAAGAGAACCACACGUUGUGGUAUAUUACCUGGUA the self-cleavage was 0.234. In the case of GUCCUCUUUCACGUGCGCGUGAAAGAGAGAAGUGAAUCAGAGAAACAGACGUUGUGGUAUAUUACCUGGUA, the self-cleavage is reported as 0.0435. GUCCUCUUUCACGUGCGCGUGAAAGAGAGAAGUGAAGCAGAGAAACACACGUUGUGGUAUAUUAGCUGGUA showed a self-cleavage of 0.225. For GUCCUCUUUCACGUGCGCGUGAAAGAGAGAAGUGAAUCAGAGAAACACACGUUGUGGUAUAUGACCUGGUA, the self-cleavage was 0.172. GUCCUCUUUCACGUGCGCGUGAAAGAGAGAAGUGAACAAGAGAAACACACGUUGUGGUAUCUUACCUGGUA gave a self-cleavage of 0.174. GUCCUCUUUCACGUGCGCGUGAAAGAGAGAAGUGAACAAGAGAAACACACGUUGUGGUAUGUUACCUGGUA gave a self-cleavage of 0.258. Work on GUCCUCUUUCACGUGCGCGUGAAAGAGAGAAGUGAAGCAGAUAAACACACGUUGUGGUAUAUUACCUGGUA yielded a self-cleavage of 0.0921. GUCCUCUUUCACGUGCGCGUGAAAGAGAGAAGUGAAUCAGAGGAACACACGUUGUGGUAUAUUACCUGGUA gave a self-cleavage of 0.146. For GUCCUCUUUCACGUGCGCGUGAAAGAGAGAAGUGAACAGGAGAAACACACGUUGUGGUAUAUUACCUGGUA, the self-cleavage was 0.136. With GUCCUCUUUCACGUGCGCGUGAAAGAGAGAAGUGAACACGAGAAACACACGUUGUGGUAUAUUACCUGGUA the self-cleavage was 0.0755. GUCCUCUUUCACGUGCGCGUGAAAGAGAGAAGUGAAUCAGAGAAACACACCUUGUGGUAUAUUACCUGGUA gave a self-cleavage of 0.689. Work on GUCCUCUUUCACGUGCGCGUGAAAGAGAGAAGUGAAUCAGAGAAACACACAUUGUGGUAUAUUACCUGGUA yielded a self-cleavage of 0.967. With GUCCUCUUUCACGUGCGCGUGAAAGAGAGAAGUGAAGCAGAGAAACACACGUUGUGGGAUAUUACCUGGUA the self-cleavage was 0.136. With GUCCUCUUUCACGUGCGCGUGAAAGAGAGAAGUGAAGUAGAGAAACACACGUUGUGGUAUAUUACCUGGUA the self-cleavage was 0.128. For GUCCUCUUUCACGUGCGCGUGAAAGAGAGAAGUGAAGCAAAGAAACACACGUUGUGGUAUAUUACCUGGUA, the self-cleavage was 0.0652. GUCCUCUUUCACGUGCGCGUGAAAGAGAGAAGUGAAGCAGAGAAACACACGUUGUGGUAUAUUACCUUGUA gave a self-cleavage of 0.189. GUCCUCUUUCACGUGCGCGUGAAAGAGAGAAGUGAAUCAGAGAAACACUCGUUGUGGUAUAUUACCUGGUA gave a self-cleavage of 0.211. GUCCUCUUUCACGUGCGCGUGAAAGAGAGAAGUGAAGCAGAGAAACACACGUUGUGCUAUAUUACCUGGUA gave a self-cleavage of 0.21. Work on GUCCUCUUUCACGUGCGCGUGAAAGAGAGAAGUGAACAAGAGAAAUACACGUUGUGGUAUAUUACCUGGUA yielded a self-cleavage of 0.187. Work on GUCCUCUUUCACGUGCGCGUGAAAGAGAGAAGUGAAGCAGAGAAACACACGUAGUGGUAUAUUACCUGGUA yielded a self-cleavage of 0.245. GUCCUCUUUCACGUGCGCGUGAAAGAGAGAAGUGAAUCAGAGAAACACACGUUGUAGUAUAUUACCUGGUA gave a self-cleavage of 0.156. In the case of GUCCUCUUUCACGUGCGCGUGAAAGAGAGAAGUGAAGCAGAGAAACACACGUUGUGGUAUAUUACCUGGUG, the self-cleavage is reported as 0.341. Work on GUCCUCUUUCACGUGCGCGUGAAAGAGAGAAGUGAAUCUGAGAAACACACGUUGUGGUAUAUUACCUGGUA yielded a self-cleavage of 0.208. GUCCUCUUUCACGUGCGCGUGAAAGAGAGAAGUGAAUCAGAGAAACACACGUUGUGGUCUAUUACCUGGUA gave a self-cleavage of 0.162. In the case of GUCCUCUUUCACGUGCGCGUGAAAGAGAGAAGUGAAUCAGAGAAACACACGUUGUGGUGUAUUACCUGGUA, the self-cleavage is reported as 0.152. GUCCUCUUUCACGUGCGCGUGAAAGAGAGAAGUGAAUCAAAGAAACACACGUUGUGGUAUAUUACCUGGUA gave a self-cleavage of 0.183. In the case of GUCCUCUUUCACGUGCGCGUGAAAGAGAGAAGUGAAUCAUAGAAACACACGUUGUGGUAUAUUACCUGGUA, the self-cleavage is reported as 0.178. Work on GUCCUCUUUCACGUGCGCGUGAAAGAGAGAAGUGAACAAGAGAAACACACGUUGUGGUAUAUUUCCUGGUA yielded a self-cleavage of 0.179. With GUCCUCUUUCACGUGCGCGUGAAAGAGAGAAGUGAACAAGAGAAACACACGUUGUGGUAUAUUGCCUGGUA the self-cleavage was 0.108. With GUCCUCUUUCACGUGCGCGUGAAAGAGAGAAGUGAACAAGAGAAACACACGUUGUGGUAUAUUCCCUGGUA the self-cleavage was 0.103. GUCCUCUUUCACGUGCGCGUGAAAGAGAGAAGUGAAUCAGAGAAACACACGUUGUGGUAUAUUACCUGGUU showed a self-cleavage of 0.557. With GUCCUCUUUCACGUGCGCGUGAAAGAGAGAAGUGAAUCAGAGAAACACACGUUGUGGUAUAUUACCUGGUC the self-cleavage was 0.93. GUCCUCUUUCACGUGCGCGUGAAAGAGAGAAGUGAAUCAGAGAAAGACACGUUGUGGUAUAUUACCUGGUA showed a self-cleavage of 0.13. Work on GUCCUCUUUCACGUGCGCGUGAAAGAGAGAAGUGAAUCAGAGAAAAACACGUUGUGGUAUAUUACCUGGUA yielded a self-cleavage of 0.121. Variant GUCCUCUUUCACGUGCGCGUGAAAGAGAGAAGUGAAGCAGAGAAACACACGGUGUGGUAUAUUACCUGGUA has a self-cleavage of 0.377. GUCCUCUUUCACGUGCGCGUGAAAGAGAGAAGUGAAGCAGAGAAACACACGUUGUGGUAUAUUACCUGGGA gave a self-cleavage of 0.405.
